Assay [1] has as its target T1, human insulin receptor (HIR) extracellular domain (ECD) (human, UniProt P06213 28-956, limits assumed).
T1 construct: extracellular domain; Solid phase antigen of the HIR ELISA; also called HIR ECD; purified human insulin receptor
Briefly: ELISA on affinity purified HIR ECD. On the procedure: The affinity of the fusion antibody for binding to the human insulin receptor (HIR) extracellular domain (ECD) was measured with an ELISA using affinity purified HIR ECD obtained from medium conditioned by CHO cells permanently transfected with the HIR ECD gene. […] The 50% saturation of binding, ED₅₀, is 0.53±0.02 nM for the chimeric HIRMAb. The ED₅₀ of fusion antibody binding to the HIR is 1.0±0.1 nM (FIG. 35). […] The HIR at the BBB is an heterotetrameric molecule comprised of two alpha and two beta chains. […] There is specific binding of the [¹²⁵I]-fusion antibody to human brain capillaries in a time-dependent process, whereas binding of the [¹²⁵I]-mouse anti-Aβ antibody is constant with time, and is non-specific (FIG. 36B).

The target in assay [2] is T2, Aβ^1-40 amyloid peptide (human, UniProt P05067 672-711).
T2 construct: domain: Aβ^1-40; Plated on 96-well plates in the ELISA and the IRMA; also called Aβ^1-40 peptide; 40 amino acid Aβ amyloid peptide of AD
As to the kind of experiment: IRMA: [125I]-murine anti-Aβ MAb on plated Aβ^1-40, unlabelled antibody as competitor. On the procedure: (§1) FIG. 34. Aβ¹⁻⁴⁰ immunoradiometric assay (IRMA) measures the binding of the [¹²⁵I]-murine anti-Aβ MAb to Aβ¹⁻⁴⁰ that is plated in wells of a 96-well plate. The murine anti-Aβ MAb is the original murine MAb against Aβ purified from hybridoma conditioned medium. In the absence of competitors of binding, approximately 20% of the total [¹²⁵I]-anti-Aβ MAb is bound to the Aβ¹⁻⁴⁰. […] The affinity of the fusion antibody for Aβ¹⁻⁴⁰ is equal to the affinity of the original murine anti-Aβ¹⁻⁴⁰ MAb
The affinity of the fusion antibody for binding to Aβ¹⁻⁴⁰ was compared to the same affinity of the murine hybridoma generated anti-Aβ MAb with an immunoradiometric assay (IMRA). In this assay, the Aβ¹⁻⁴⁰ is plated in 96-well plates, and the binding of [¹²⁵I]-murine anti-Aβ MAb to the […] is measured. […] Therefore, the affinity of the fusion antibody for Aβ¹⁻⁴⁰ is identical to that of the original 150 kDa hetero-tetrameric murine anti-Aβ MAb. This was a surprising finding, since the affinity of a ScFv for the target antigen is generally much lower than for the full, tetrameric MAb molecule. Owing to the bivalency of the tetrameric MAb, the affinity for the antigen is higher than the affinity of the monomeric ScFv. […]

Assay [3] concerns the target BBB insulin receptor of the Rhesus monkey (Rhesus monkey, UniProt Q28516 1-210). As to the kind of experiment: cell-based or functional assay.
The target in assay [4] is T2, Aβ^1-40 amyloid peptide. Briefly: IRMA: competition with [125I]-murine anti-Aβ MAb on plated Aβ^1-40. On the procedure: as §1
The affinity of the fusion antibody for binding to Aβ¹⁻⁴⁰ was compared to the same affinity of the murine hybridoma generated anti-Aβ MAb with an immunoradiometric assay (IMRA). In this assay, the Aβ¹⁻⁴⁰ is plated in 96-well plates, and the binding of [¹²⁵I]-murine anti-Aβ MAb to the […] is measured. […] Therefore, the affinity of the fusion antibody for Aβ¹⁻⁴⁰ is identical to that of the original 150 kDa hetero-tetrameric murine anti-Aβ MAb. This was a surprising finding, since the affinity of a ScFv for the target antigen is generally much lower than for the full, tetrameric MAb molecule. Owing to the bivalency of the tetrameric MAb, the affinity for the antigen is higher than the affinity of the monomeric ScFv. The high affinity of the ScFv moiety of the fusion antibody for Aβ¹⁻⁴⁰ is attributed to the design of the fusion antibody molecule, which places the ScFv in a dimeric or bivalent conformation (FIG. 26).

The target of assay [5] is T2, Aβ^1-40 amyloid peptide. As to the kind of experiment: IRMA on plated Aβ^1-40.

B1: chimeric HIRMAb (chimeric monoclonal antibody to the human insulin receptor) (antibody, human IgG1, kappa, V domains shown)
VH: QVQLQQSGPELVKPGALVKISCKASGYTFTNYDIHWVKQRPGQGLEWIGWIYPGDGSTKYNEKFKGKATLTADKSSSTAYMHLSSLTSEKSAVYFCAREWAYWGQGTLVTVSA
VL: DIQMTQSPSSLSASLGERVSLTCRASQDIGGNLYWLQQGPDGTIKRLIYATSSLDSGVPKRFSGSRSGSDYSLTISSLESEDFVDYYCLQYSSSPWTFGGGTKMEIKR
A word on the EC50: it is the concentration that produces a half-maximal response. In the case of B1, the midpoint of the response in assay [1], the EC50, lay at 0.53 nM.

B2: murine anti-Aβ MAb (hybridoma generated) (antibody, V domains shown)
VH: QVQLQQSGAELVKPGATVKLSCKASGYSFNSHYIYWVKQRPGQGLEWIGEINPSNGAMNFNEKFKNKATLTVDKSSSTAYMQLSSLTSEDSAVYYCVRDPTSYWGQGTLVTVSA
VL: DVVMTQTPLSLPVSLGDQASISCRSSQSLVHSYGNTYLHWYLQKPGQSPKLLIYKVSNRFSGVPDRFSGSGSGTDFTLKISRVEAEDLGVYFCSQSTHVPYTFGGGTKLEIKR
notes: 150 kDa hetero-tetrameric mouse IgG (gamma heavy chain, kappa light chain) purified from hybridoma medium; also called mouse anti-Aβ MAb; mouse anti-Aβ antibody
By Kd is commonly meant the concentration at which binding is half-saturated. B2 registered a Kd in the assay with Aβ^1-40 amyloid peptide [2] of 32 nM.

B3: anti-Aβ ScFv/chimeric HIRMAb fusion antibody (bispecific antibody, human IgG1, kappa)
heavy: not shown
light: DIQMTQSPSSLSASLGERVSLTCRASQDIGGNLYWLQQGPDGTIKRLIYATSSLDSGVPKRFSGSRSGSDYSLTISSLESEDFVDYYCLQYSSSPWTFGGGTKMEIKRTVAAPSVFIFPPSDEQLKSGTASVVCLLNNFYPREAKVQWKVDNALQSGNSQESVTEQDSKDSTYSLSSTLTLSKADYEKHKVYACEVTHQGLSSPVTKSFNRGEC
notes: also called fusion protein; HIRMAb-mAβScFv
Turning to B3, the “brain volume of distribution (VD) in Rhesus monkey at 3 hours after intravenous injection” value in assay [3] was above 10 fold. The same molecule came in with an EC50 in assay [1] of 1 nM. The Kd with Aβ^1-40 amyloid peptide [4] was determined as 24 nM.

B4: Ala-497 form of the antibody fusion protein (N497A) (bispecific antibody, human IgG1, kappa)
heavy: not shown
light: B3 light
notes: also called fusion antibody with the N497A mutation
A word on the Ki: it is the dissociation constant of the complex between target and ligand, obtained from inhibition or displacement. With B4, in the assay with Aβ^1-40 amyloid peptide [5], the “fold decrease of affinity against the Asn-497 fusion antibody” value was around 6 fold. Also, the affinity with Aβ^1-40 amyloid peptide [4] corresponds to a Ki of 182 nM.

B5: Ala-499 form of the antibody fusion protein (S499A) (bispecific antibody, human IgG1, kappa)
heavy: not shown
light: B3 light
notes: also called fusion antibody with the S499A mutation
Turning to B5, the “fold decrease of affinity against the Ser-499 fusion antibody” value in the assay with Aβ^1-40 amyloid peptide [5] is 8 fold. The same molecule registered a Ki with Aβ^1-40 amyloid peptide [4] of 271 nM.
